Reference: PMC9482650, “Quantitative fragmentomics allow affinity mapping of interactomes” (Nature Communications, 2022)
Where a chain is given by its changes, count along the chain named.

T1: APBA2_1, Q99767
T1 sequence (Q99767 563-664, limits assumed, looked up): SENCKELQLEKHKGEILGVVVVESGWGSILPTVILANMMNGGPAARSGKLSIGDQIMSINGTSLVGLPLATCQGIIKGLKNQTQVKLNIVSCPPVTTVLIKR

T2: DLG3_1, Q92796
T2 sequence (Q92796 125-227, limits assumed, looked up): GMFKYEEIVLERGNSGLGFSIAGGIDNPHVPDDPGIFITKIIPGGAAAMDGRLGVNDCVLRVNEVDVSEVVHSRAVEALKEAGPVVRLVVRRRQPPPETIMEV

T3: DLG3_2, Q92796
T3 sequence (Q92796 221-321, limits assumed, looked up): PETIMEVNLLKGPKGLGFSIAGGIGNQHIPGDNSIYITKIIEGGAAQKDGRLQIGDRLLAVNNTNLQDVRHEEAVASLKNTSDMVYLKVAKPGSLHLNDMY

T4: DVL3, Q92997
T4 sequence (Q92997 244-331, limits assumed, looked up): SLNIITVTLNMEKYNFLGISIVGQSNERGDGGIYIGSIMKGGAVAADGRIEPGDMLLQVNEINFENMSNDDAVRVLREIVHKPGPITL

T5: FRMPD1, Q5SYB0
T5 sequence (Q5SYB0 52-145, limits assumed, looked up): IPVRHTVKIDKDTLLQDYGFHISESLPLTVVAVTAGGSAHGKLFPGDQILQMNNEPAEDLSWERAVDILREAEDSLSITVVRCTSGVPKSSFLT

T6: GRIP1_2, Q9Y3R0
T6 sequence (Q9Y3R0 145-248, limits assumed, looked up): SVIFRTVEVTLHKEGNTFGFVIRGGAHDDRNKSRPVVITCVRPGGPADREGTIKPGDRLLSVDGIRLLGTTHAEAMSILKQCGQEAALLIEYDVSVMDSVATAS

T7: LIN7A, O14910
T7 sequence (O14910 103-200, limits assumed, looked up): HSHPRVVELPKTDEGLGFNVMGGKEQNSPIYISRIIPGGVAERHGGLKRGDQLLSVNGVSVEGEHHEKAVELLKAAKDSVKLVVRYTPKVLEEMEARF

T8: LIN7B, Q9HAP6
T8 sequence (Q9HAP6 88-185, limits assumed, looked up): T7 sequence (O14910 103-200, limits assumed, looked up) with S2A, V20I, I35V, E42D, H65Q, K77Q, D78G, K89R

T9: MPP6, Q9NZW5
T9 sequence (Q9NZW5 125-219, limits assumed, looked up): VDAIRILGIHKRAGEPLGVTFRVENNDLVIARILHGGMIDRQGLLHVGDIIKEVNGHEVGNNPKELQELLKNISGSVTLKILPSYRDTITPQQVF

T10: PCLO, Q9Y6V0
T10 sequence (Q9Y6V0 4491-4600, limits assumed, looked up): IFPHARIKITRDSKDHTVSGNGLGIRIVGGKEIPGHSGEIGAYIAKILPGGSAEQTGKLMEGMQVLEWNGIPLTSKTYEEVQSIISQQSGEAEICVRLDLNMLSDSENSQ

T11: PDZRN3_1, Q9UPQ7
T11 sequence (Q9UPQ7 244-349, limits assumed, looked up): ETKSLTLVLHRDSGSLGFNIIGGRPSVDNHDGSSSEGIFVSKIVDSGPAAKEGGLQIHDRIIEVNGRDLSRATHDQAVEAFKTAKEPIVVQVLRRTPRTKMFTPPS

T12: SNTG1, Q9NSN8
T12 sequence (Q9NSN8 52-150, limits assumed, looked up): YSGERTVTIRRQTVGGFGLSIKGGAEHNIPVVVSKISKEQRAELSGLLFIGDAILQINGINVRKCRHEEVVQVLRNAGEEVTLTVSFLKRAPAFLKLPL


Biological target: T1, APBA2_1, Q99767
Assay: holdup assay
Set-up: key: below the threshold = too weak to quantify, mostly under pKd 3.1 to 4
Conditions: plain residues with an end cap or a label only (N-terminal biotin on a linker: ado-ado)

Question: With ARGPPRESEV [FAM110D, Q8TAY7] as the binder, how does the pKd read?
Answer: The pKd was “below the threshold”.

Biological target: ARHGEF12, Q9NZN5-2
Assay: holdup assay
Set-up: key: below the threshold = too weak to quantify, mostly under pKd 3.1 to 4
Conditions: plain residues with an end cap or a label only (N-terminal biotin on a linker: ado-ado)

Sequence of ARHGEF12, Q9NZN5-2 (Q9NZN5 other isoform, or with tags, fused parts or gaps): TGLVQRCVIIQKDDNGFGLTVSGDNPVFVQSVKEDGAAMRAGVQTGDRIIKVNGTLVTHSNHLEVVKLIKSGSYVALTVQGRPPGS

Question: ARGPPRESEV [FAM110D, Q8TAY7] was tested. Which pKd did it give?
Answer: Its pKd is 3.82.

Biological target: T2, DLG3_1, Q92796
Assay: holdup assay
Set-up: key: below the threshold = too weak to quantify, mostly under pKd 3.1 to 4
Conditions: plain residues with an end cap or a label only (N-terminal biotin on a linker: ado-ado)

Question: With ARGPPRESEV [FAM110D, Q8TAY7] as the binder, how does the pKd read?
Answer: Its pKd is 4.3.

Biological target: T3, DLG3_2, Q92796
Assay: holdup assay
Set-up: key: below the threshold = too weak to quantify, mostly under pKd 3.1 to 4
Conditions: plain residues with an end cap or a label only (N-terminal biotin on a linker: ado-ado)

Question: How did the pKd turn out when ARGPPRESEV [FAM110D, Q8TAY7] was run?
Answer: Its pKd is 5.19.

Biological target: T4, DVL3, Q92997
Assay: holdup assay
Set-up: key: below the threshold = too weak to quantify, mostly under pKd 3.1 to 4
Conditions: plain residues with an end cap or a label only (N-terminal biotin on a linker: ado-ado)

Question: How did the pKd turn out when ARGPPRESEV [FAM110D, Q8TAY7] was run?
Answer: Its pKd is “below the threshold”.

Biological target: T5, FRMPD1, Q5SYB0
Assay: holdup assay
Set-up: key: below the threshold = too weak to quantify, mostly under pKd 3.1 to 4
Conditions: plain residues with an end cap or a label only (N-terminal biotin on a linker: ado-ado)

Question: With ARGPPRESEV [FAM110D, Q8TAY7] as the binder, how does the pKd read?
Answer: Its pKd is “below the threshold”.

Biological target: FRMPD2_2, Q68DX3
Assay: holdup assay
Set-up: key: below the threshold = too weak to quantify, mostly under pKd 3.1 to 4
Conditions: plain residues with an end cap or a label only (N-terminal biotin on a linker: ado-ado)

Sequence of FRMPD2_2, Q68DX3 (Q68DX3 944-1038): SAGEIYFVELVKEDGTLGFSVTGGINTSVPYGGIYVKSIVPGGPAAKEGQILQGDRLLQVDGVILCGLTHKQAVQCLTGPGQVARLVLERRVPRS

Question: How did the pKd turn out when ARGPPRESEV [FAM110D, Q8TAY7] was run?
Answer: The pKd was 3.5.

Biological target: GORASP2, Q9H8Y8
Assay: holdup assay
Set-up: key: below the threshold = too weak to quantify, mostly under pKd 3.1 to 4
Conditions: plain residues with an end cap or a label only (N-terminal biotin on a linker: ado-ado)

Question: Which pKd does the source give for ARGPPRESEV [FAM110D, Q8TAY7] here?
Answer: The pKd was “below the threshold”.

Biological target: GRID2IP_1, A4D2P6
Assay: holdup assay
Set-up: key: below the threshold = too weak to quantify, mostly under pKd 3.1 to 4
Conditions: plain residues with an end cap or a label only (N-terminal biotin on a linker: ado-ado)

Sequence of GRID2IP_1, A4D2P6 (A4D2P6 1-87): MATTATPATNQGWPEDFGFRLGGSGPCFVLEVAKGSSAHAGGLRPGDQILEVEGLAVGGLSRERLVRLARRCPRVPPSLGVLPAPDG

Question: Which pKd does the source give for ARGPPRESEV [FAM110D, Q8TAY7] here?
Answer: The pKd was “below the threshold”.

Biological target: T6, GRIP1_2, Q9Y3R0
Assay: holdup assay
Set-up: key: below the threshold = too weak to quantify, mostly under pKd 3.1 to 4
Conditions: plain residues with an end cap or a label only (N-terminal biotin on a linker: ado-ado)

Question: ARGPPRESEV [FAM110D, Q8TAY7] was tested. Which pKd did it give?
Answer: Its pKd is “below the threshold”.

Biological target: HTRA1, Q92743
Assay: holdup assay
Set-up: key: below the threshold = too weak to quantify, mostly under pKd 3.1 to 4
Conditions: plain residues with an end cap or a label only (N-terminal biotin on a linker: ado-ado)

Sequence of HTRA1, Q92743 (Q92743 360-477): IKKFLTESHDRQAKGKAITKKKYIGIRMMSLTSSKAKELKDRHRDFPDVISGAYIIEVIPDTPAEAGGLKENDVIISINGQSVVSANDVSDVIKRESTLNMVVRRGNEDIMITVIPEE

Question: Which pKd does the source give for ARGPPRESEV [FAM110D, Q8TAY7] here?
Answer: Its pKd is “below the threshold”.

Biological target: HTRA2, O43464
Assay: holdup assay
Set-up: key: below the threshold = too weak to quantify, mostly under pKd 3.1 to 4
Conditions: plain residues with an end cap or a label only (N-terminal biotin on a linker: ado-ado)

Sequence of HTRA2, O43464 (O43464 355-458): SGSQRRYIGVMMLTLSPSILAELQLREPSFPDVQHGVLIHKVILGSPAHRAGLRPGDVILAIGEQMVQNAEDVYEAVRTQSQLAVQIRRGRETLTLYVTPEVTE

Question: How did the pKd turn out when ARGPPRESEV [FAM110D, Q8TAY7] was run?
Answer: The pKd was “below the threshold”.

Biological target: IL16_4, Q14005
Assay: holdup assay
Set-up: key: below the threshold = too weak to quantify, mostly under pKd 3.1 to 4
Conditions: plain residues with an end cap or a label only (N-terminal biotin on a linker: ado-ado)

Sequence of IL16_4, Q14005 (Q14005 1229-1329): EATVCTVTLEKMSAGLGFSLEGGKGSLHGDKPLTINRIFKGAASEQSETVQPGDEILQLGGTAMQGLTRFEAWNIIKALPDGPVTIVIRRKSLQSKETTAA

Question: How did the pKd turn out when ARGPPRESEV [FAM110D, Q8TAY7] was run?
Answer: The pKd was “below the threshold”.

Biological target: Inadl_8, Q8NI35
Assay: holdup assay
Set-up: key: below the threshold = too weak to quantify, mostly under pKd 3.1 to 4
Conditions: plain residues with an end cap or a label only (N-terminal biotin on a linker: ado-ado)

Sequence of Inadl_8, Q8NI35 (Q8NI35 1425-1530): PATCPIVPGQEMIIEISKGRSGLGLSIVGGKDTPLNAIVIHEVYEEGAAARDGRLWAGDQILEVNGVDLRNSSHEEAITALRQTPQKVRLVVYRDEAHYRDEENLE

Question: How did the pKd turn out when ARGPPRESEV [FAM110D, Q8TAY7] was run?
Answer: Its pKd is 3.81.

Biological target: LAP2, Q96RT1
Assay: holdup assay
Set-up: key: below the threshold = too weak to quantify, mostly under pKd 3.1 to 4
Conditions: plain residues with an end cap or a label only (N-terminal biotin on a linker: ado-ado)

Sequence of LAP2, Q96RT1 (Q96RT1 other isoform, or with tags, fused parts or gaps): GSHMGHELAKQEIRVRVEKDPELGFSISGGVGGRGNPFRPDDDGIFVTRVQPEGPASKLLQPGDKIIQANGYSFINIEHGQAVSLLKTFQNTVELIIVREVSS

Question: ARGPPRESEV [FAM110D, Q8TAY7] was tested. Which pKd did it give?
Answer: Its pKd is 4.37.

Biological target: T7, LIN7A, O14910
Assay: holdup assay
Set-up: key: below the threshold = too weak to quantify, mostly under pKd 3.1 to 4
Conditions: plain residues with an end cap or a label only (N-terminal biotin on a linker: ado-ado)

Question: With ARGPPRESEV [FAM110D, Q8TAY7] as the binder, how does the pKd read?
Answer: Its pKd is “below the threshold”.

Biological target: T8, LIN7B, Q9HAP6
Assay: holdup assay
Set-up: key: below the threshold = too weak to quantify, mostly under pKd 3.1 to 4
Conditions: plain residues with an end cap or a label only (N-terminal biotin on a linker: ado-ado)

Question: Which pKd does the source give for ARGPPRESEV [FAM110D, Q8TAY7] here?
Answer: The pKd was “below the threshold”.

Biological target: LNX1_3, Q8TBB1
Assay: holdup assay
Set-up: key: below the threshold = too weak to quantify, mostly under pKd 3.1 to 4
Conditions: plain residues with an end cap or a label only (N-terminal biotin on a linker: ado-ado)

Sequence of LNX1_3, Q8TBB1 (Q8TBB1 500-596): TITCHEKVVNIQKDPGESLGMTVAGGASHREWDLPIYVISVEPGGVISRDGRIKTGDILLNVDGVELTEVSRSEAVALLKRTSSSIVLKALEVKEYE

Question: ARGPPRESEV [FAM110D, Q8TAY7] was tested. Which pKd did it give?
Answer: Its pKd is “below the threshold”.

Biological target: T9, MPP6, Q9NZW5
Assay: holdup assay
Set-up: key: below the threshold = too weak to quantify, mostly under pKd 3.1 to 4
Conditions: plain residues with an end cap or a label only (N-terminal biotin on a linker: ado-ado)

Question: Which pKd does the source give for ARGPPRESEV [FAM110D, Q8TAY7] here?
Answer: The pKd was “below the threshold”.

Biological target: NHERF4_1, Q86UT5-2
Assay: holdup assay
Set-up: key: below the threshold = too weak to quantify, mostly under pKd 3.1 to 4
Conditions: plain residues with an end cap or a label only (N-terminal biotin on a linker: ado-ado)

Sequence of NHERF4_1, Q86UT5-2 (Q86UT5 other isoform, or with tags, fused parts or gaps): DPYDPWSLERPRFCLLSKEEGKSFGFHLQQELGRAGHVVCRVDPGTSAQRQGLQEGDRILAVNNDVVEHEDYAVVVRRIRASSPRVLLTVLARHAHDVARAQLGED

Question: How did the pKd turn out when ARGPPRESEV [FAM110D, Q8TAY7] was run?
Answer: The pKd was “below the threshold”.

Biological target: T10, PCLO, Q9Y6V0
Assay: holdup assay
Set-up: key: below the threshold = too weak to quantify, mostly under pKd 3.1 to 4
Conditions: plain residues with an end cap or a label only (N-terminal biotin on a linker: ado-ado)

Question: For ARGPPRESEV [FAM110D, Q8TAY7], which pKd is on record?
Answer: Its pKd is “below the threshold”.

Biological target: PDLIM1, O00151
Assay: holdup assay
Set-up: key: below the threshold = too weak to quantify, mostly under pKd 3.1 to 4
Conditions: plain residues with an end cap or a label only (N-terminal biotin on a linker: ado-ado)

Sequence of PDLIM1, O00151 (O00151 1-87): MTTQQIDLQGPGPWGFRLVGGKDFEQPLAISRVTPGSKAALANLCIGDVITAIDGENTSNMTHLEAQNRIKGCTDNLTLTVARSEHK

Question: How did the pKd turn out when ARGPPRESEV [FAM110D, Q8TAY7] was run?
Answer: The pKd was 3.71.

Biological target: T11, PDZRN3_1, Q9UPQ7
Assay: holdup assay
Set-up: key: below the threshold = too weak to quantify, mostly under pKd 3.1 to 4
Conditions: plain residues with an end cap or a label only (N-terminal biotin on a linker: ado-ado)

Question: Which pKd does the source give for ARGPPRESEV [FAM110D, Q8TAY7] here?
Answer: The pKd was 5.07.

Biological target: SCRIB_3, Q14160
Assay: holdup assay
Set-up: key: below the threshold = too weak to quantify, mostly under pKd 3.1 to 4
Conditions: plain residues with an end cap or a label only (N-terminal biotin on a linker: ado-ado)

Sequence of SCRIB_3, Q14160 (Q14160 999-1103): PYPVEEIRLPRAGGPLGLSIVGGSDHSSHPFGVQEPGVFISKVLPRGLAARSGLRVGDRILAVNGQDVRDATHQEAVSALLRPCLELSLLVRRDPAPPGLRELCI

Question: ARGPPRESEV [FAM110D, Q8TAY7] was tested. Which pKd did it give?
Answer: Its pKd is 4.63.

Biological target: T12, SNTG1, Q9NSN8
Assay: holdup assay
Set-up: key: below the threshold = too weak to quantify, mostly under pKd 3.1 to 4
Conditions: plain residues with an end cap or a label only (N-terminal biotin on a linker: ado-ado)

Question: With ARGPPRESEV [FAM110D, Q8TAY7] as the binder, how does the pKd read?
Answer: Its pKd is 5.23.

Biological target: TJP1_3, Q07157
Assay: holdup assay
Set-up: key: below the threshold = too weak to quantify, mostly under pKd 3.1 to 4
Conditions: plain residues with an end cap or a label only (N-terminal biotin on a linker: ado-ado)

Sequence of TJP1_3, Q07157 (Q07157 416-512): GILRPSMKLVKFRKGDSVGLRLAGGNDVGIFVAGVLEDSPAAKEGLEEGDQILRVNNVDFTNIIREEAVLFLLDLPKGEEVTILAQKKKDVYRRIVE

Question: ARGPPRESEV [FAM110D, Q8TAY7] was tested. Which pKd did it give?
Answer: The pKd was “below the threshold”.
